Test results reported in patent US20240376221A1 (Genmab, published 2024).
Where a chain is given by its changes, count along the chain named. Numbers in names are those of the source.

B1: IgG1-CD134-012-RR-K409R (antibody)
heavy: QSLEESGGRLVTPGTPLTLICTVSGIDLSSGAMGWVRQAPGKGLEYIGYIYTGSGTTSYASWVNGRFTISMTSTTVDLKITSPTTEDTATYFCARDAASSYWGHFTLWGQGTLVTVSSASTKGPSVFPLAPSSKSTSGGTAALGCLVKDYFPEPVTVSWNSGALTSGVHTFPAVLQSSGLYSLSSVVTVPSSSLGTQTYICNVNHKPSNTKVDKRVEPKSCDKTHTCPPCPAPELLGGPSVFLFPPKPKDTLMISRTPEVTCVVVDVSHEDPEVKFNWYVDGVEVHNAKTKPREEQYNSTYRVVSVLTVLHQDWLNGKEYKCKVSNKALRAPIEKTISKAKGQPRRPQVYTLPPSREEMTKNQVSLTCLVKGFYPSDIAVEWESNGQPENNYKTTPPVLDSDGSFFLYSRLTVDKSRWQQGNVFSCSVMHEALHNHYTQKSLSLSPG
light: DIVMTQTPASVEAAVGGTVTIKCQASENIYSSLAWYQQKPGQPPKLLIYRTSTLASGVPSRFKGSGSGTQFTLTISDLESDDAATYYCQSYYHNSGGGYDYGFGGGTEVVAKRTVAAPSVFIFPPSDEQLKSGTASVVCLLNNFYPREAKVQWKVDNALQSGNSQESVTEQDSKDSTYSLSSTLTLSKADYEKHKVYACEVTHQGLSSPVTKSFNRGEC
notes: chimeric 012; also called IgG1-CD134-012-P329R-E345R-K409R
B2: IgG1-CD134-007-RR (antibody)
heavy: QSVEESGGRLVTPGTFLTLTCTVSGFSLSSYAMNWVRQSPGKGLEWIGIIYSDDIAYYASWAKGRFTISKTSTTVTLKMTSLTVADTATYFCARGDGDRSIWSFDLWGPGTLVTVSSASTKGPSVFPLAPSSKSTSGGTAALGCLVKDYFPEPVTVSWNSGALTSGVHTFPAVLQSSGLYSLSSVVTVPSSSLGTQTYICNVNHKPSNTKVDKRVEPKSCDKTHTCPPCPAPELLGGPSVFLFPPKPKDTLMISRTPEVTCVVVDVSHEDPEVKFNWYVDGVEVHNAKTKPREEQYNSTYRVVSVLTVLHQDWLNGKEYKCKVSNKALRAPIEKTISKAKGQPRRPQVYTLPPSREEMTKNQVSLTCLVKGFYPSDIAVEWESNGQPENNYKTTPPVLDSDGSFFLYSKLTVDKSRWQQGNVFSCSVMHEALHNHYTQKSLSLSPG
light: AQVLTQTPSPVSAAVGGTVTISCQSSESVWNNNWLAWYQQKPGQPPNLLIYEASTLASGVSSRFKGSGSGTQFTLTVSEVQSDDAATYYCQGGYYDSSPIWTFGGGTEVVVKRTVAAPSVFIFPPSDEQLKSGTASVVCLLNNFYPREAKVQWKVDNALQSGNSQESVTEQDSKDSTYSLSSTLTLSKADYEKHKVYACEVTHQGLSSPVTKSFNRGEC
notes: chimeric 007 with RR constant region; also called IgG1-CD134-007-P329R-E345R

Assays:
[1] = target: T1, human OX40, cell surface-expressed (human, UniProt P43489 29-277); assay: flow cytometry, ExpiCHO-S cells with human OX40
T1 construct: also called CD134; TNFRSF4
T1 sequence: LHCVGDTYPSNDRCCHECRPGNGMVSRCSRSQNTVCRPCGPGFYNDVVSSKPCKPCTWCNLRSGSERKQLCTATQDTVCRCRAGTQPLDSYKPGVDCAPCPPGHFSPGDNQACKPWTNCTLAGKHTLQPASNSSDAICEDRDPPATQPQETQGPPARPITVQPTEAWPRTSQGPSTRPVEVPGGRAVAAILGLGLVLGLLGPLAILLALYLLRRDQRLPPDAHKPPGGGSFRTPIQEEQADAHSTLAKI
Experimental: (§1) The four shuffle constructs, as well as wild-type human and mouse OX40 were transiently expressed on ExpiCHO-S cells using the ExpiFectamine™ CHO Transfection Kit (ThermoFisher, cat. no. A29131), according to the manufacturer's protocol. […] Next, cells were washed twice in FACS buffer 1, were resuspended in a 30 μL solution of viability marker ToPro-3 (Invitrogen, cat. no. T3605, diluted 1:10,000) in FACS buffer 1 supplemented with 2 mM EDTA, and were analyzed on an iQue Screener Plus (Intellicyt Corporation, USA). Data were analyzed using FlowJo software and visualized using GraphPad Prism.

[2] = target: T2, cynomolgus monkey OX40, cell surface-expressed (cynomolgus monkey, UniProt P43489 29-277 (human entry)); assay: flow cytometry, HEK293F cells with cynomolgus monkey OX40
T2 construct: full-length, on transfected HEK293F cells
T2 chain: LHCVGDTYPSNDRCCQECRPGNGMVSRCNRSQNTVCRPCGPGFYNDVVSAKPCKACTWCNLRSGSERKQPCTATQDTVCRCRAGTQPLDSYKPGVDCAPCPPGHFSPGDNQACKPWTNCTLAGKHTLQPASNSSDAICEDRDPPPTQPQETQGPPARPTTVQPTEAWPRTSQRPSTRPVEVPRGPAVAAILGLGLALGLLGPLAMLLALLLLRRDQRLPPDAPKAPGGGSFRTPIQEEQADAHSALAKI
Experimental: Transfected cells were seeded in 96-well plates (30,000 cells/well; ThermoFisher, cat. no. 163320) for sequential incubations, with washing steps in between using fluorescence-activated cell sorting (FACS) buffer 1 (phosphate buffered saline [PBS; Lonza, cat. no. BE17-517Q] supplemented with 0.1% bovine serum albumin [BSA; Roche, cat. no. 10735086001] and 0.02% sodium azide [NaN₃; Bio-World, cat. no. 41920044-3]) supplemented with 2 mM ethylenediaminetetraacetic acid (EDTA; Sigma-Aldrich, cat. no. 03690). […] Cells were then washed using EDTA-supplemented FACS buffer 1, resuspended in a 30 μL solution of viability marker ToPro-3 (Invitrogen, cat. no. T3605, diluted 1:10,000) in EDTA-supplemented FACS buffer 1, and subsequently analyzed on an iQue® 3 flow cytometer (Satorius). Data were analyzed using FlowJo software and were visualized using GraphPad Prism.

[3] = target: T3, human OX40 with mouse CRD2 (human with mouse CRD2, UniProt P43489 29-277); assay: flow cytometry, ExpiCHO-S cells with human OX40 carrying mouse CRD2
T3 construct: on transfected ExpiCHO-S cells; also called Shuffle 2; OX40-CRD2mm
T3 chain: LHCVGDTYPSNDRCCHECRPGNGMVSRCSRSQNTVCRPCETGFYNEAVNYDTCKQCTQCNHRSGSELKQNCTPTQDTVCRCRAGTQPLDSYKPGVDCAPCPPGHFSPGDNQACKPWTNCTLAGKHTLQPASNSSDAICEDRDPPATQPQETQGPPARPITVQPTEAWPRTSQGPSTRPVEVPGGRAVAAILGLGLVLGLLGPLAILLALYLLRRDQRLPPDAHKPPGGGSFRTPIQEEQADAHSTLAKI
Experimental: as §1

[4] = target: T4, human OX40 with mouse CRD3 (human with mouse CRD3, UniProt P43489 29-277); assay: flow cytometry, ExpiCHO-S cells with human OX40 carrying mouse CRD3
T4 construct: on transfected ExpiCHO-S cells; also called Shuffle 3; OX40-CRD3mm
T4 chain: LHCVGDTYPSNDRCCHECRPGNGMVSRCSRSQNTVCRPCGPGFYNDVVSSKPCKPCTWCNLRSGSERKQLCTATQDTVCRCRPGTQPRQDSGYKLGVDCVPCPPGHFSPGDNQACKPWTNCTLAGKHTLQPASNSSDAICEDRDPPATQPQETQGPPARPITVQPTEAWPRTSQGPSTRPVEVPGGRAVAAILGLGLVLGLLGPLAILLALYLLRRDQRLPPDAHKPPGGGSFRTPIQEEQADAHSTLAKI
Experimental: as §1

[5] = target: T5, human OX40 with mouse CRD4 (human with mouse CRD4, UniProt P43489 29-277); assay: flow cytometry, ExpiCHO-S cells with human OX40 carrying mouse CRD4
T5 construct: on transfected ExpiCHO-S cells; also called Shuffle 4; OX40-CRD4mm
T5 chain: T1 sequence with D109N, A122S, H125Q, L127R, Q128H, N132D, S134L, I137V
Experimental: (§2) Data shown are the geometric mean of the fluorescence intensity (gMFI) from one representative experiment out of two experiments performed.
as §1

[6] = target: T6, human OX40 with mouse CRD1 (human with mouse CRD1, UniProt P43489 29-277); assay: flow cytometry, ExpiCHO-S cells with human OX40 carrying mouse CRD1
T6 construct: on transfected ExpiCHO-S cells; also called Shuffle 1; OX40-CRD1mm
T6 chain: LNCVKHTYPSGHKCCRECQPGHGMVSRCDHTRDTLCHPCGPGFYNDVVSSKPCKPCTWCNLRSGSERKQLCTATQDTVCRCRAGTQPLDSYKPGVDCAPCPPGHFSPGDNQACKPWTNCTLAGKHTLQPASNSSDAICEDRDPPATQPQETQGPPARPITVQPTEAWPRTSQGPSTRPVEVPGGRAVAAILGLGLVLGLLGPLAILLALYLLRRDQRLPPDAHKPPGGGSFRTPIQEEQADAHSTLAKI
Experimental: as §2, §1

Binder	EC50 (read off the curve) [1]	EC50 (read off the curve) [2]	EC50 (read off the curve) [3]	EC50 (read off the curve) [4]	EC50 (read off the curve) [5]	EC50 (read off the curve) [6]
B1	~0.06 µg/mL	~0.05 µg/mL	~0.1 µg/mL	~0.1 µg/mL	~0.1 µg/mL	–
B2	~0.005 µg/mL	–	–	~0.02 µg/mL	~0.009 µg/mL	~5 ng/mL
